{
  "source": "patent US20110136145A1",
  "about": "“METHODS FOR PROMOTING FUSION AND REPROGRAMMING OF SOMATIC CELLS” (THE JOHNS HOPKINS UNIVERSITY, priority 2008, published 2011)",
  "key": {"[1]": {"test_system": "ESC-induced Oct4-GFP re-activation in NSCs", "assay": "CLEAR analysis of ESC fusion-induced reprogramming (PEG-induced fusion of Z-Red ESCs and CIPOE NSCs, flow cytometry)", "description": "CLEAR strategy uses engineered ESCs and NSCs for monitoring fusion-induced DsRed expression and reprogramming-induced GFP expression (FIG. 1A). Z-Red ESCs were derived from a clonal ESC line containing one copy of a transgene (CAG-loxP-LacZ::neomycin-polyA-loxP-DsRed.T3) as a Cre recombination excision reporter.\nAdult NSCs were isolated from Oct4-GFP (GOF 18-A PE-EGFP) transgenic mice and transduced by retroviruses to stably co-express Cre and the puromycin resistance gene through a bicistronic cassette (termed CIPOE NSCs hereafter). Somatic cells with Oct4-GFP transgene integration have been used previously to investigate reprogramming, in which the regulatory elements of Oct4 direct reliable GFP reactivation from somatic genomes in reprogrammed ESC-like hybrid cells (also see FIG. 3). Multiple CIPOE NSC lines from Oct4-GFP transgenic mice were established, characterized and used for subsequent cell fusion experiments.\nTo quantitatively analyze the reprogramming-induced Oct4-GFP re-activation, dual-color flow cytometry was used to display and measure the cell population that underwent PEG-induced cell fusion. Viable cells were identified by their typical FSC (Forward Scatter) and SSC (Side Scatter) properties. To ensure appropriate gating for […] and DsRed+ events and to compensate the spectrum crossover of GFP and DsRed signals, the system was first calibrated using multiple control cells, including Z-Red ESCs, CIPOE NSCs, mixed Z-Red ESCs and CIPOE NSCs without PEG. Z-Red ESCs transfected with a constitutive Cre expression plasmid, and CIPOE NSCs transfected with a Cre excision reporter plasmid (FIG. 4A).\nESC fusion-induced Oct4 re-activation from NSCs was quantitatively measured using two different approaches. In the first approach, the reprogramming frequency (Rf) is determined by the ratio of GFP DsRed+ cells to total DsRed+ cells. […] In the second approach, the reprogramming efficacy is determined by the distribution of GFP fluorescence intensities of individual cells from the DsRed+ population (FIG. 4C). This analysis provides a measurement of the efficiency of Oct4-GFP re-activation in NSCs after successful fusion.\nThe protocol was optimized for PEG-induced cell fusion between ESCs and NSCs to achieve maximum efficiency and minimal toxicity. Equal numbers of ESCs and NSCs were mixed thoroughly and spun down in PBS. The pellet was loosened by gentle tapping and 50% PEG (500 μl for 1×10^7 cells) was added to the cells continuously over one minute while swirling the mixture in 37° C. water bath Next, 2 ml of ESC medium was layered on top of PEG-cell mixture and one-minute incubation in 37° C., followed by low-speed centrifugation at 1,800 rpm for 5 minutes. After removing the supernatant, the pellet was incubated with ESC medium for one minute, washed, resuspended and plated onto gelatin-coated dishes and grown in Dubelcco's Modified Eagle's Medium, 15% fetal bovine serum supplemented with mouse leukemia inhibitory factor (ESGRO), 0.1 mM nonessential amino acids, 0.1 mM β-mercaptoethanol, and 50 U/ml penicillin/50 μg/ml streptomycin (ESC medium). […] The following pharmacological inhibitors were applied in ESC-fusion experiments only during the first 48 hours after fusion. DMOG (5-10 μM; BioMol), Anacardic acid (5-10 μM; Calbiochem), Trichostatin A (TSA, 100 nM-1 μM; Sigma) and azidothymidine (AZT, 1-5 μM; Sigma)."}, "Oct4": {"test_system": "Oct4", "assay": "Conventional RT-PCR and quantitative PCR of endogenous Oct4 expression in adult NSCs", "assay_type": "cell-based, mouse", "procedure": "(§1) (A) is a schematic drawing of Oct4 promoter with 16 CpG sites, which are located between the proximal enhancer and exon 1. Bisulfite sequencing analysis is performed for genomic DNA extracted from CIPOE, Z-Red ESCs, fusion clone B3, CIPOE-shControl and CIPOE-shG9a NSCs. (B, C) show conventional RT-PCR (B) and quantitative real-time PCR(C) are used to compare the mRNA abundance of Oct4 in CIPOE, Z-Red ESCs, fusion clone B3, CIPOE-shControl and CIPOE-shG9a NSCs. Data represent mean+SEM. (n=3, *. P<0.01, Student's t-test).\nReprogramming requires erasure of the somatic epigenoine including both histone and DNA modification. Next it was further tested whether DNA demethylation of pluripotency gene Oct4 induced by ESC-mediated reprogramming may partially account for the facilitating effects of histone demethylation during reprogramming. […] The impact of G9a knockdown on endogenous Oct4 expression was also evaluated. […] The mRNA abundance of Oct4 expression measured in bulk adult NSC cultures with G9a knocking-down reached around 10% of that in ESCs, while little expression was detected in CIPOE or CIPOE cells expressing the control shRNA.\n(§2) For real-time quantitative PCR, total RNAs were purified using RNAeasy kit (Qiagen) and converted to cDNA by SuperScript III (Invitrogen). Triplicate cDNA samples were added to a SYBR-green based quantitative PCR reaction mix and analyzed using the ddCt methods. […]"}, "Oct4 promoter": {"test_system": "Oct4 promoter", "assay": "Bisulfite sequencing of Oct4 promoter in CIPOE NSCs", "assay_type": "cell-based, mouse", "conditions": "independent of cell fusion", "procedure": "as §1\nReprogramming requires erasure of the somatic epigenoine including both histone and DNA modification. […] The impact of G9a knockdown on endogenous Oct4 expression was also evaluated. […] The mRNA abundance of Oct4 expression measured in bulk adult NSC cultures with G9a knocking-down reached around 10% of that in ESCs, while little expression was detected in CIPOE or CIPOE cells expressing the control shRNA.\nFor bisulfite genomic sequencing, 500 ng of genomic DNA from each sample was digested by EcoRI overnight, followed by boiling for 5 min and incubation in 0.3 M NaOH at 50° C. for 15 min. […] Efficiency of bisulfite conversion was monitored by the presence of unconverted C residues in non-CpG regions, which were only seldom seen. […]"}, "G9a": {"test_system": "G9a", "assay": "Quantitative real-time PCR of G9a expression in CIPOE NSCs", "assay_type": "cell-based, mouse", "conditions": "CIPOE cells", "description": "Shown is a summary of quantitative real-time PCR analysis of the expression level of G9a in Z-Red ESCs, CIPOE NSCs, CIPOE NSCs with control shRNA or G9a-targeted shRNA. The mRNA abundance was normalized to the levels in CIPOE cells. Values represent mean+SEM (n=3; * P<0.01, Students t-test). […] Shown are results from cell fusion experiments between Z-Red and CIPOE, CIPOE-shControl, or CIPOE-shG9a cells. Values represent mean+SEM (n=3; *- P<0.01 Students t-test). (C) Summary of reprogramming efficacy. Cumulative distribution plots of DsRed+ population with graded GFP fluorescence intensities are shown for comparison of the reprogramming efficacy of Z-Red ESCs with CIPOE-shControl, or CIPOE-shG9a cells at day 2 and day 4 after cell fusion. Values represent mean±SEM (n=3; *: P<0.01, Kolmogorov-Smirnov test).\nNext, the molecular identities of epigenetic factors that play critical roles in reprogramming were examined. […] Using a previously validated small short-hairpin RNA (shRNA) for mouse G9a, the expression of endogenous G9a was knocked down in CIPOE cells, as shown by quantitative real-time PCR (FIG. 7A). […]\nas §2"}, "[2]": {"conditions": "100 nM, applied only during the first 48 hours after fusion"}},
  "data": [
    {"molecule": "N[C@@H]1C[C@H]1c1ccccc1", "note": "(racemic) [Tranylcypromine]", "values": [
      {"measurement": "Effects (on reprogramming)", "setting": "[1]; 2 μM, applied only during the first 48 hours after fusion", "result": "mild reprogramming deficit"}
    ]},
    {"molecule": "CCCCCCCCCCCCCCCc1cccc(O)c1C(=O)O", "note": "[Anacardic acid]", "values": [
      {"measurement": "Effects (on reprogramming)", "setting": "[1]; 5 μM, applied only during the first 48 hours after fusion", "result": "mild reprogramming deficit;"}
    ]},
    {"molecule": "CC(/C=C/C(=O)NO)=C\\[C@@H](C)C(=O)c1ccc(N(C)C)cc1", "note": "[TSA, Trichostatin A]", "values": [
      {"measurement": "Effects (on reprogramming)", "setting": "[1]; [2]", "result": "pro-differentiation"},
      {"measurement": "Effects (toxicity to the cells)", "setting": "[1]; [2]", "result": "toxic"}
    ]},
    {"molecule": "shRNA-G9a: short hairpin RNA for mouse G9a, …, cloned into retroviral vector pUEG (nucleic acid, listed as Mus musculus, cloned into retroviral vector pUEG, short hairpin RNA for mouse G9a, …, cloned into retroviral vector pUEG) TCTATCGCCTTGAGCCGTTGGCCTTCAGATAGGCTGATTTGGTTGGTGTCTTGCTCTTTCTGTGGGAAGGCTGCGGCTCACTTCCTTCTGACTTCTTGATAATTTTGCATTAGACATTTAACTCTTCTTTCTATGATCTTTCCTTCTAGACACTGAGTTTTTTGGTTGTTGCCTAAAACCTTTTCAGAAATCCCTTCCCTCGCCATCACACTGACATGAGTGTGGGTCTTCCTGGTCCCCACAGTTTGCCTAGTTCTGAGGAAGCATCGAATTCTGGGAACGCCTCATCAATGCCTGCAGTTTTTCATCCCGAGAACTATTCTTGCTTACAAGGGTCTGCTACTGAGATGCTCTGCACAGAGGCTGCCTCTCCTCGCCCTTCCTCTGAAGACCTGCCTCTTCAAGGCAGCCCTGATTCTTCTACCAGTCCCAAACAAAAGCTCTCAAGTCCTGAGGCTGACAAGGGCCCTGAGGAGGAGGAGAACAAGGTCCTTGCCAGGAAGCAGAAGATGCGGACTGTGTTCTCTCAGGCCCAGCTGTGTGCACTCAAGGACAGGTTTCAGAAGCAGAAGTACCTCAGCCTCCAGCAGATGCAAGAACTCTCCTCCATTCTGAACCTGAGCTATAAGCAGGTTAAGACCTGGTTTCAAAACCAAAGGATGAAGTGCAAGCGGTGGCAGAAAAACCAGTGGTTGAAGACTAGCAATGGTCTGATTCAGAAGGGCTCAGCACCAGTGGAGTATCCCAGCATCCATTGCAGCTATCCCCAGGGCTATCTGGTGAACGCATCTGGAAGCCTTTCCATGTGGGGCAGCCAGACTTGGACCAACCCAACTTGGAGCAGCCAGACCTGGACCAACCCAACTTGGAACAACCAGACCTGGACCAACCCAACTTGGAGCAGCCAGGCCTGGACCGCTCAGTCCTGGAACGGCCAGCCTTGGAATGCTGCTCCGCTCCATAACTTCGGGGAGGACTTTCTGCAGCCTTACGTACAGTTGCAGCAAAACTTCTCTGCCAGTGATTTGGAGGTGAATTTGGAAGCCACTAGGGAAAGCCATGCGCATTTTAGCACCCCACAAGCCTTGGAATTATTCCTGAACTACTCTGTGACTCCACCAGGTGAAATATGAGACTTACGCAACATCTGGGCTTAAAGTCAGGGCAAAGCCAGGTTCCTTCCTTCTTCCAAATATTTTCATATTTTTTTTAAAGATTTATTTATTCATTATATGTAAGTACACTGTAGCTGTCTTCAGACACTCCAGAAGAGGGCGTCAGATCTTGTTACGTATGGTTGTGAGCCACCATGTGGTTGCTGGGATTTGAACTCCTGACCTTCGGAAGAGCAGTCGG", "values": [
      {"measurement": "expression of endogenous Oct4", "setting": "Oct4; adult NSCs, conventional and quantitative PCR", "result": "partially re-activated"},
      {"measurement": "mRNA abundance of Oct4 expression", "setting": "Oct4; bulk adult NSC cultures, relative to that in ESCs", "result": "around 10%"},
      {"measurement": "increase in the reprogramming frequency", "setting": "[1]; day 2, expressed in CIPOE NSCs", "result": 110, "unit": "%"},
      {"measurement": "efficacy of ESC-induced Oct4-GFP re-activation", "setting": "[1]; day 2 and day 4, expressed in CIPOE NSCs", "result": "significantly enhanced"},
      {"measurement": "increase in the reprogramming frequency", "setting": "[1]; day 4, expressed in CIPOE NSCs", "result": 26, "unit": "%"},
      {"measurement": "DNA methylation in Oct4 promoter regions", "setting": "Oct4 promoter", "result": "considerably decreased"},
      {"measurement": "expression of endogenous G9a", "setting": "G9a", "result": "knocked down"}
    ]}
  ]
}
